Test results from article PMC5389731 (Nucleic Acids Research, 2017).

How the values were obtained:
[1] = target: T1, toxin CcdB2 (F plasmid CcdB dimer) (E. coli F plasmid, UniProt P62554 1-101); experiment: ITC
[2] = target: T2, CcdA2 (antitoxin dimer);CcdB2 (toxin dimer) (Escherichia coli (F …, UniProt P62552;P62554 1-72;1-101, |)); experiment: EMSA
[3] = target: T2, CcdA2 (antitoxin dimer);CcdB2 (toxin …); experiment: EMSA; remark: listed apart in the source
[4] = target: T2, CcdA2 (antitoxin dimer);CcdB2 (toxin …); experiment: ITC
[5] = target: T1, toxin CcdB2 (F plasmid CcdB dimer); experiment: ITC; remark: listed apart in the source

Question: Does RRLRAERWKAENQEGMAEVARFIEMNGSFADENRDW (peptide, UniProt P62552 37-72, looked up) [CcdAC, truncated CcdA comprising the entire C-terminal domain (CcdA^37-72)] bind [1]?
Answer: binds

B1: Ccd3 (3 binding sites) (dsDNA)
DNA 1: ACGTGCGGTATAAGAATATATACTGATATGTATACCCGAATA
DNA 2: TATTCGGGTATACATATCAGTATATATTCTTATACCGCACGT
Question: Does B1 bind [2]?
Answer: binds

B2: Random (dsDNA)
DNA 1: TGCCCAAGTGATGCTAAACAAGACTTAGCTGGTTCCTGTGTT
DNA 2: AACACAGGAACCAGCTAAGTCTTGTTTAGCATCACTTGGGCA
Question: Does B2 bind [3]?
Answer: no binding

B3: CcdITC (3 binding sites) (dsDNA)
DNA 1: GCGGTATAAGAATATATACTGATATGTATACCC
DNA 2: GGGTATACATATCAGTATATATTCTTATACCGC
Question: Does B3 bind [4]?
Answer: binds

B4: antitoxin CcdA2 (F plasmid CcdA dimer, full length) (natural protein, E. coli F plasmid, UniProt P62552 1-72, looked up)
chain: MKQRITVTVDSDSYQLLKAYDVNISGLVSTTMQNEARRLRAERWKAENQEGMAEVARFIEMNGSFADENRDW
Question: How did the “difference between the high and low affinity binding constants” value [5] turn out when B4 was run?
Answer: ~1e+06 fold
